In US20160272953A1, “Activated Sugars” (ZuChem, Inc., priority 2010, published 2016):

Test: Sugar kinase activity of cell lysates with D-galactose at 37, 45, 55° C. (DNS assay)
Type: biochemical
Conditions: 8 mM D-galactose; 37, 45 and 55° C.
Text: The formation of a phosphorylated sugar by kinase activity can be monitored by a number of methods. One method for detecting sugar-1-kinase activity is the 3,5-dinitrosalicylic acid (DNS) assay. This assay exploits the fact that reducing sugars can reduce compounds such as 3,5-dinitrosalicylic acid, which undergo a color change upon reduction. This assay can be used for sugar-1-kinases since the product of their reaction (sugar-1-phosphate) no longer has the ability to reduce DNS. Therefore, when the reaction is complete no color change occurs when incubated with DNS and the result is a yellow color. However, when reducing sugar remains, the result is reduction of DNS and red/brown color. This assay is furthermore concentration dependent providing a linear color change from 0.1 to 10 mM reducing sugar.
The sugar kinase proteins were expressed recombinantly in E. coli induced with 0.5mM IPTG and partially purified cell lysates were then assayed (100 μL) with 400 μmM ATP, 3.5 mM Mg^2+, and 8 mM D-galactose at three different temperatures, 37, 45, and 55° C. […] A negative control was treated similarly and consisted of the host strain with empty plasmid.

| Molecule | activity in partially purified cell extract |
| --- | --- |
| S. thermophilus: Streptococcus thermophilus wild-type sugar-1-kinase (SEQ ID NO:8) (protein, listed as Streptococcus thermophilus) MNTSQLREKFKEVFGVEADHTFFSPGRINLIGEHTDYNGGNVLPVAITLGTYGAARKRDDKVLRFFSANFEEKGIIEVPLENLRFEKEHNWTNYPKGVLHFLQEAGHTIDSGMDIYIYGNIPNGSGLSSSSSLELLIGVIVEKLYDIKLERLDLVKIGKQTENDFIGVNSGIMDQFAIGMGADQCAIYLDTNTLKYDLVPLDLKDNVVVIMNTNKRRELADSKYNERRAECETAVSELQEKLDIQTLGELDFLTFDAYSYLIKDENRIKRARHVVLENQRTLQARKALEAGDLEGFGRLMNASHVSLEYDYEVTGLELDTLAHTAWEQEGVLGARMTGAGFGGCAIALVNKDKVEDFKKAVGQRYEEVVGYAPSFYIAEVTGGSRVLD | most activity |
| P. furiousus: Pyrococcus furiosus wild-type sugar-1-kinase (SEQ ID NO:10) (protein, listed as Pyrococcus furiosus) MSKITVKSPGRVNLIGEHTDYTYGYVMPMAIDLYTIITAEKYDKVQLYSEHFNEEKTFTLDNLTKEGSWIDYVKGVLWVLIQEGYKIGGLKGKITGDLPLGAGLSSSASFEVGILEVLNQLYNLNIDPLKKALLAKKAENEFVGVPCGILDQFAVVFGKKDNVIFLDTQTLQYEYIPFPKDVSVLVFYTGVKRELASSEYAERKRIAEESLRILGKESSKEVTEKDLGKLPPLHRKFFSYIVRENARVLEVRDALKEGDIEKVGKILTTAHWDLAENYRVSCEELDFFVKKAMELGAYGARLTGAGFGGSAIALVDKDKAKTIGDAILREYLAKFSWKAKYFVVKPSDGVGV | more active at temperatures higher than 37 °C |
| T. thermophilus: Thermus thermophilus wild-type sugar-1-kinase (SEQ ID NO:9) (protein, listed as Thermus thermophilus) MGFQEVYGVLPQASAQAPGRVNLLGEHTDYQEGYVLPTPIPYFTRVEAAPLEGAVEAFSENLGELRARPLSSPPQGDFLDYLLGVVRALREAGHEVAGARFYVRSDLPMGAGLSSSAALEVAALRALRTLYRLPLSDLEVARLAQKAEVEYVGVRCGIMDQMAASLGQPGQALFLDTRTLAYENLPLPPGVRVAVLDLGLGRRLAEAGYNRRRQEAEEAAKRLGVRSLRDVADLCLVESLPSPLDRRARHVVSENLRVLRGVEALRRGDARAFGELMTQSHRSLAQDYEVNLPELDALVEEALRAGAYGAKLTGAGFGGAVVALVAESRFPAFREALARRFPDLKVL | more active at temperatures higher than 37 °C |
